Measurements published in paper PMC6173795, “The FapF Amyloid Secretion Transporter Possesses an Atypical Asymmetric Coiled Coil” (Journal of Molecular Biology, 2018).

How the values were obtained:
[1] = target: the molecule itself; assay: crystal structure; synthetic peptide at 10 mg/ml; 0.2 M zinc acetate dihydrate, 0.1 M sodium cacodylate pH 6.5, 10% v/v 2-propanol; data processed in P1, six chains in the asymmetric unit
[2] = target: the molecule itself; assay: SEC-MALS; Superdex 75 10/300 GL, phosphate buffer (20 mM PO4, 150 mM NaCl, pH 6.8), 100 ul FapF3-40 samples at 1 mg/ml, 0.25 ml/min; size exclusion profiles of wild type, R33A and R33E

| Protein | stoichiometry N [1] | stoichiometry N [2] |
| --- | --- | --- |
| DVDIETLKQELLELKQRYEAQQKALAVLEQRVRQVEDQ (FapF amyloid secretion transporter of Pseudomonas, coiled-coil region, residues 3-40; Parallel trimer; six chains (two trimers) in the asymmetric unit of the crystal; also called FapFCC peptide; periplasmic domain of FapF; source: synthetic peptide (ChinaPeptides, 97.5% purity)) [FapFCC synthetic peptide (predicted coiled-coil region of FapF, residues 3-40)] | 3 | – |
| DVDIETLKQELLELKQRYEAQQKALAVLEQRVRQVEDQ (domain or fragment, Pseudomonas UK4, Cloned into pNIC28-Bsa4 (vector: Addgene plasmid no. 26103); also called recombinant FapFCC; not shown: His6, N-terminal, cleaved) [recombinant FapF3-40 (FapFCC), wild type] | – | 3 |
